For assay [1], the target named is Delta spike trimer (SARS-CoV-2), P0DTC2. The note with it: remark: other sources report otherwise.
The target of assay [2] is Antibody 178-09_His B.1.1.7 (27080) (SARS-CoV-2), P0DTC2. Briefly: SPR (Carterra). The conditions noted are these: remark: other sources report otherwise.

B1: 3-31 (Fc fusion)
chain: EVQLVESGGGLVQPGGSLRLSCAASGSTFSINAMGWFRQAPGKEREFVAGITSSGGYTNYADSVKGRFTISADNSKNTAYLQMNSLKPEDTAVYYCAADGVPEYSDYASGPVWGQGTLVTVSS
With B1, the half-maximal inhibitory concentration (IC50) in assay [1] was 3 nM. Moreover, the Kd in assay [2] amounted to 16.1 nM.

Usually IC50 stands for the concentration that inhibits the measured activity by half. A high value points to a need for much substance. For orientation: Kd means the free concentration of one partner at which half of the binding sites on the other are occupied at equilibrium, for simple one-to-one binding. Low values mean a tighter complex, high ones a looser complex.

(Values after patent US20230192818A1.)
